# Experimental data: paper PMC5447021, “TNF Lectin-Like Domain Restores Epithelial Sodium Channel Function in Frameshift Mutants Associated with Pseudohypoaldosteronism Type 1B” (Frontiers in Immunology, 2017)
# Legend:
# [1] = molecular target: T1, α-hENaC (Homo sapiens, UniProt P37088); experiment: Whole-cell patch clamp, α-hENaC alone; type: cell-based; conditions: TNF, -100 mV, mean ± S.E., n = 5, p < 0.001 vs solnatide
# T1 construct: expressed in transfected cells; host or cells: HEK-293
# T1 sequence (P37088 1-669): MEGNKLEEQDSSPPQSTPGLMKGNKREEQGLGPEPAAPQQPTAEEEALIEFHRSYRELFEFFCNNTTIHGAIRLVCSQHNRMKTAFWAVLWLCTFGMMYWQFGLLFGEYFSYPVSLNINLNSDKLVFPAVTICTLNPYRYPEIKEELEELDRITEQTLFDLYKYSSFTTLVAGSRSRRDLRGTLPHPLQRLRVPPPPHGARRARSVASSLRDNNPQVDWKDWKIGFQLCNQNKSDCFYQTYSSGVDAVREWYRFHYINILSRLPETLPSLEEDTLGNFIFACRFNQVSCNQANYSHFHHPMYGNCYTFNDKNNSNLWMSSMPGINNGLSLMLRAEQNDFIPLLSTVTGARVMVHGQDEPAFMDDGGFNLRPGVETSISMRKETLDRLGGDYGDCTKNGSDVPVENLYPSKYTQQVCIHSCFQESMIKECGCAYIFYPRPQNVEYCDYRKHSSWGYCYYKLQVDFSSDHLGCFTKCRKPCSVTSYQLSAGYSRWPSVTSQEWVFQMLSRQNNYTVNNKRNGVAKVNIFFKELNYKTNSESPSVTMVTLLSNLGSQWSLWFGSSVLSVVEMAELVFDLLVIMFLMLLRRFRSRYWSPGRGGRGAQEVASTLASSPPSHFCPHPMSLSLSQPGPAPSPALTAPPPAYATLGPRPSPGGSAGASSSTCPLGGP
# Experimental: (§1) HEK-293 cells were transfected 1 day after cell seeding using X-tremeGENE HP DNA transfection reagent (Roche Diagnostics, Mannheim, Germany) according to the manufacturer’s protocol. A set of WT or mutant αβγ- or δβγ-hENaC, or α-, β-, γ-, or δ-hENaC alone was used, and the ratio of DNA to transfection reagent was 1:3. The expression was highest 48–72 h after transfection.
# (§2) Electrophysiological experiments were performed as described in detail by Shabbir et al. ([16]). […] Currents were recorded with the patch clamp method in the whole-cell mode. The chamber contained 1 ml of the bath solution of the following composition (in mM): 145 NaCl, 2.7 KCl, 1.8 CaCl2, 2 MgCl2, 5.5 glucose, and 10 HEPES, adjusted to pH 7.4 with 1 M NaOH solution. Micropipettes were pulled from thin-walled borosilicate glass capillaries (Harvard Apparatus, Holliston, MA, USA) with a DMZ Zeitz Puller to obtain electrode resistances ranging from 2 to 5 MΩ. The pipette solution contained (in millimolars): 135 potassium methane sulfonate, 10 KCl, 6 NaCl, 1 Mg2ATP, 2 Na3ATP, 10 HEPES, and 0.5 EGTA, adjusted to pH 7.2 with 1 M KOH solution. Chemicals for pipette and bathing solutions were supplied by Sigma-Aldrich (Vienna, Austria). Electrophysiological measurements were carried out with an Axopatch 200B patch clamp amplifier (Axon Instruments, CA, USA). […]
# [2] = molecular target: T2, β-hENaC (Homo sapiens, UniProt P51168); experiment: Whole-cell patch clamp, β-hENaC alone; type: cell-based; conditions: TNF, mean ± S.E., n = 5
# T2 construct: expressed in transfected cells; host or cells: HEK-293
# T2 sequence (P51168 1-640): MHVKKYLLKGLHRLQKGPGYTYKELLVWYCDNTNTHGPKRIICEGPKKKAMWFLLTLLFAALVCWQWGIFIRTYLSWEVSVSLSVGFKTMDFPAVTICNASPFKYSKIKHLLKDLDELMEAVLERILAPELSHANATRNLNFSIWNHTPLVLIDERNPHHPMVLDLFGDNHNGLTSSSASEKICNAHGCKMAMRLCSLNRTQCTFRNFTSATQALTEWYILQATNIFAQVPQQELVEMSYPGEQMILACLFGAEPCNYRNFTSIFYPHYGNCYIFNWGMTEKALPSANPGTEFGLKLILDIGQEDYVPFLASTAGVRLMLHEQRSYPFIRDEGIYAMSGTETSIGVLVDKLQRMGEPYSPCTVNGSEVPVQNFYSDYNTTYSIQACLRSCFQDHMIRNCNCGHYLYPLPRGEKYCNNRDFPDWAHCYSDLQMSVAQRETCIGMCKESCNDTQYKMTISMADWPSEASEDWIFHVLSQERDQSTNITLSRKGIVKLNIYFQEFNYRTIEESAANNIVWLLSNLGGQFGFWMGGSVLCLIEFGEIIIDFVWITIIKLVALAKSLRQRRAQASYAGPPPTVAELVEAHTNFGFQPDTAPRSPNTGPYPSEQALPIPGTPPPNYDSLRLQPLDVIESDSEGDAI
# Experimental: as §1, §2
# [3] = molecular target: T3, αβγ-hENaC (Homo sapiens, UniProt P37088+P51168+P51170); experiment: Whole-cell patch clamp, WT αβγ-hENaC; type: cell-based
# T3 construct: expressed in transfected cells; host or cells: HEK-293
# T3 sequence (P37088 1-669): T1 sequence (P37088 1-669)
# T3 sequence (P51168 1-640 partner): T2 sequence (P51168 1-640)
# T3 sequence (P51170 1-649 partner): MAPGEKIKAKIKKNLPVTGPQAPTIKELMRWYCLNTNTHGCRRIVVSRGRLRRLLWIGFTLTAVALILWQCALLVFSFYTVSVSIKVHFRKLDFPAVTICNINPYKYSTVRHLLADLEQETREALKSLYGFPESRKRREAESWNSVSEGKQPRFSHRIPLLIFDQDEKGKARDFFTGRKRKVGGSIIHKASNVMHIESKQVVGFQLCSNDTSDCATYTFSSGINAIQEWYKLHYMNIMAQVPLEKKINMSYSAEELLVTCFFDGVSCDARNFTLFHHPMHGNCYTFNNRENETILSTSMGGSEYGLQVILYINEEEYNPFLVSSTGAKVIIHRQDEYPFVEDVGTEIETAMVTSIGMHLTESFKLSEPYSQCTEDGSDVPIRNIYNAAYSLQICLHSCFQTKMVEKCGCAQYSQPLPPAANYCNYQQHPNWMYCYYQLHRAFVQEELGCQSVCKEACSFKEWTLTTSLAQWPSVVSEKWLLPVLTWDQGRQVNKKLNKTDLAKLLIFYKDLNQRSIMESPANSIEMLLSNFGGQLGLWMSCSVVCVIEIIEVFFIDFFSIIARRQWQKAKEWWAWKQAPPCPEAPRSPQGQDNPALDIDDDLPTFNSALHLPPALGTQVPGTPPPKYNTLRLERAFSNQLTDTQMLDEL
# Experimental: Point mutations of α-, β-, γ- and δ-hENaC and PHA1B frameshift mutations of α-hENaC were prepared with the QuikChange Lightning Site-Directed Mutagenesis Kit (Agilent Technologies, CA, USA). Mutagenic primers were designed individually with the Primer Design Program provided on the producer’s website or for the frameshift mutations the same base changes as reported in patients (see Table 2) were performed. Primers were ordered from Sigma-Aldrich, Vienna, Austria.
# as §1
# as §2, with “USA). Capacity transients were canceled, and series resistance was compensated. Whole-cell currents were filtered at 5 kHz and sampled at 10 kHz. Data acquisition and storage were processed directly to a PC equipped with pCLAMP 10.2 software (Axon Instruments, CA, USA).” for “USA).”
# [4] = molecular target: T4, δ-hENaC (Homo sapiens, UniProt P51172); experiment: Whole-cell patch clamp, δ-hENaC alone; type: cell-based; conditions: TNF, mean ± S.E., n = 5, p < 0.001 vs solnatide
# T4 construct: expressed in transfected cells; host or cells: HEK-293
# T4 sequence (P51172 1-638 isoform P51172-1): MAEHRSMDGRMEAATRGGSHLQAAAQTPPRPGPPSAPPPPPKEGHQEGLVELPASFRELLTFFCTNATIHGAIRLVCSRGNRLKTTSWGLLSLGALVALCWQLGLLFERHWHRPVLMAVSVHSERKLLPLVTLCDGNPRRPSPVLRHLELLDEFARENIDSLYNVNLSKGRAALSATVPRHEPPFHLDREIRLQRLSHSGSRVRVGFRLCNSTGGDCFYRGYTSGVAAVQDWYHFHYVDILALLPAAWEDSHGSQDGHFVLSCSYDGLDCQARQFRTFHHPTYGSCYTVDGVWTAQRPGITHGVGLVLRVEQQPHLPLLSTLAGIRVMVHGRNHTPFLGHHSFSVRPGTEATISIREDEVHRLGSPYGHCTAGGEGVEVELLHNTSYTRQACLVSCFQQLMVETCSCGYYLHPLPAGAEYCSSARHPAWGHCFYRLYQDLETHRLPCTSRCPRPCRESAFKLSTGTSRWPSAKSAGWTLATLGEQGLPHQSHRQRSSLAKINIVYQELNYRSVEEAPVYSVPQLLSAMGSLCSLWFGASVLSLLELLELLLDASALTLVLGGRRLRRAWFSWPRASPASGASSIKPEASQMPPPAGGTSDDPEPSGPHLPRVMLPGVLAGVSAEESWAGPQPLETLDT
# Experimental: as §1, §2
# [5] = molecular target: wild-type αβγ-hENaC (amiloride-sensitive epithelial sodium channel) (human) (UniProt P37088)
# [6] = molecular target: β-hENaC expressed alone (human) (UniProt P51168)
# [7] = molecular target: δ-hENaC expressed alone (human) (UniProt P51172)
# [8] = molecular target: α-hENaC expressed alone (human) (UniProt P37088)
# [9] = molecular target: γ-hENaC expressed alone (human) (UniProt P51170)
# [10] = molecular target: αR448fsβγ-ENaC (human) (UniProt P37088)
# [11] = molecular target: αN511Qβγ-ENaC (human) (UniProt P37088)
# [12] = molecular target: αN232Qβγ-ENaC (human) (UniProt P37088)
molecule,measurement,setting,value
"TNF: Tumor necrosis factor (CAS Registry Number 94948-59-1, Sigma-Aldrich, Austria)",EC50,[1],4.2 ± 1.9 nM
same,EC50,[2],18.8 ± 2.9 nM
same,EC50,"[3]; TNF, amiloride-sensitive Na^+ current, αβγ-hENaC in HEK-293, whole-cell, -100 mV, 19–22°C, bath pH 7.4, cumulative addition, mean ± S.E., n = 5, p < 0.001 vs solnatide",6.7 ± 2.1 nM
same,EC50,[4],5 ± 0.3 nM
"N=C(N)NC(=O)c1nc(Cl)c(N)nc1N [amiloride, reference compound]",Block of induced current by amiloride,"[3]; 10 µM amiloride, TNF- or solnatide-induced current",blocked by 10 µM amiloride within a few pulses
Tumor necrosis factor (TNF) (ligand),"EC50 of TNF for activating amiloride-sensitive Na+ current, whole-cell patch clamp at -100 mV, transfected HEK-293 cells",[5],6.7 nM
same,"maximal TNF-induced amiloride-sensitive Na+ current, whole-cell patch clamp at -100 mV, transfected HEK-293 cells",[5],162 pA
same,"EC50 of TNF for activating amiloride-sensitive Na+ current, whole-cell patch clamp at -100 mV, transfected HEK-293 cells",[6],18.8 nM
same,"maximal TNF-induced amiloride-sensitive Na+ current, whole-cell patch clamp at -100 mV, transfected HEK-293 cells",[6],18.5 pA
same,"EC50 of TNF for activating amiloride-sensitive Na+ current, whole-cell patch clamp at -100 mV, transfected HEK-293 cells",[7],5 nM
same,"maximal TNF-induced amiloride-sensitive Na+ current, whole-cell patch clamp at -100 mV, transfected HEK-293 cells",[7],27.8 pA
same,"EC50 of TNF for activating amiloride-sensitive Na+ current, whole-cell patch clamp at -100 mV, transfected HEK-293 cells",[8],4.2 nM
same,"maximal TNF-induced amiloride-sensitive Na+ current, whole-cell patch clamp at -100 mV, transfected HEK-293 cells",[8],48.1 pA
same,"maximal TNF-induced amiloride-sensitive Na+ current, whole-cell patch clamp at -100 mV, transfected HEK-293 cells",[9],8 pA
same,"fold increase of current (TNF-induced/amiloride-sensitive current), whole-cell patch clamp, transfected HEK-293 cells",[10],3.5 fold
same,"maximal TNF-induced current, whole-cell patch clamp, transfected HEK-293 cells",[11],50.7 pA
same,"maximal TNF-induced current, whole-cell patch clamp, transfected HEK-293 cells",[12],84.7 pA
